Assay results reported in article doi:10.1101/2023.06.19.545627v1, “Pharmacokinetic profile of the synthetic mu-opioid receptor agonist [Lys7]Dermorphin-IRDye®800CW and its feasibility as a biomarker for opioid use disorder” (bioRxiv, 2023).

Assays:
[1] = Plasma pharmacokinetics by direct carotid artery fluorescence imaging after intravenous injection; settings: for Distribution rate, b / Elimination rate, d: biexponential fit; for Distribution rate, b / Elimination rate, d / Distribution (α) half-life / Elimination (β) half-life: value (95% CI); for Plasma half-life (time in which the concentration of dye is 50% of initial) / Distribution (α) half-life / Elimination (β) half-life: IV; for Distribution (α) half-life / Elimination (β) half-life: biexponential
[2] = test system: CHO-K1 cells expressing MOR; experiment: Wide field fluorescence microscopy of DRM-800 binding and internalization; type: cell-based, Chinese hamster
Text: Cells were visualized using a Zeiss LSM 800 inverted microscope with a Generation III 750 nm laser light source (Lumencor, Inc., Beaverton, OR) and a Zeiss Plan-Apochromat 20×/0.8 M27 objective lens. The filters used for imaging DRM-800 were 740 nm for excitation, 770 nm dichroic and 780 nm longpass for emission (Filter Set 49037, Chroma Technology Corp., Bellows Falls, VT). Acquisition of micrographs was accomplished using a digital CMOS Camera (C114400-22CU, Hamamatsu Photonics K.K.) with a 2×2 pixel binning. Images were processed in ImageJ FIJI, windowed and leveled identically across samples, and then adjusted step-wise until cells are visible, with each image being shown for transparency.
Wide field fluorescence microscopy (Fig. 3) was used to study the binding and internalization of DRM-800 to stably expressed MORs in the membrane of transfected CHO-K1 cells.

MOR = MOR (Mus musculus, UniProt P42866); experiment: Whole body biodistribution by cryo-macrotome fluorescence imaging, wildtype vs MOR knockout; settings: 1 hour after IV injection
[3] = rate constants did not differ between groups (wildtype and MOR-knockout mice), 1 nmol IV coinjection with DRM-800
[4] = MOR-knockout mice, n = 4, 1 nmol IV tail vein coinjection with IRDye700DX
[5] = wildtype mice, n = 4, 1 nmol IV tail vein coinjection with IRDye700DX, imaged 1 hour

MOR, sequence (P42866 whole entry, looked up): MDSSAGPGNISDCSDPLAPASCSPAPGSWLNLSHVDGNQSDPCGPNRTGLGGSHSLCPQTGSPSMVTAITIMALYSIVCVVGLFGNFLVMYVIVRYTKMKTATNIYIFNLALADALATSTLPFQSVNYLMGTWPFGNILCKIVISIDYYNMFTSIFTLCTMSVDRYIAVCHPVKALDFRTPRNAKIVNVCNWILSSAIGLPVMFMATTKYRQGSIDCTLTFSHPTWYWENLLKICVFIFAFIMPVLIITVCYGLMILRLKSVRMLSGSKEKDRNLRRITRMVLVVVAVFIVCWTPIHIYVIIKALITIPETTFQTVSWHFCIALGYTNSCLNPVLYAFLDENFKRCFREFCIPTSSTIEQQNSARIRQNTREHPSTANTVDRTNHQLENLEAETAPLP

## IRDye®700DX [IRD700, reference compound]
[1]; [3]
  Distribution rate, b: 0.42 (0.36 - 0.47) min^−1
  Elimination rate, d: 0.054 (0.051 - 0.057) min^−1

## C[C@@H](NC(=O)[C@@H](N)Cc1ccc(O)cc1)C(=O)N[C@@H](Cc1ccccc1)C(=O)NCC(=O)N[C@@H](Cc1ccc(O)cc1)C(=O)N1CCC[C@H]1C(=O)N[C@@H](CCCCN)C(=O)N[C@@H](CSC1CC(=O)N(CCNC(=O)CCCCC[N+]2=C(/C=C/C3=C(Oc4ccc(S(=O)(=O)O)cc4)C(=C/C=C4/N(CCCCS(=O)(=O)O)c5ccc(S(=O)(=O)O)cc5C4(C)C)/CCC3)C(C)(C)c3cc(S(=O)(=O)[O-])ccc32)C1=O)C(N)=O (stereo partly drawn) [DRM-800, IRDye®800CW-labelled YdAFGYPKC-NH2]
[2]; 2 nM and 25 nM, 35°C, 30 min of incubation, no sucrose
  Binding and internalization seen by fluorescence microscopy: plasma membrane fluorescence as well as fluorescent puncta of high intensity in the perinuclear region of the cytoplasm were observable
[2]; 4C with addition of sucrose (0.35 M)
  Binding and internalization seen by fluorescence microscopy with internalization inhibited: fluorescence was distinctly observed at the plasma membrane and intracellular puncta was greatly reduced
MOR; cryo-macrotome ROI analysis
  Fluorescence in small and large intestine, wildtype compared with knockout: elevated levels of DRM-800 compared with knockout mice
  Ratio of average fluorescence wildtype vs knockout, dorsal root ganglion: 1.8 ± 0.05
  Ratio of average fluorescence wildtype vs knockout, left spiral ganglion: 2.2 ± 0.2
  Ratio of average fluorescence wildtype vs knockout, right spiral ganglion: 2.9 ± 0.3
  Ratio of average fluorescence wildtype vs knockout, trigeminal ganglion: 3.1 ± 0.2
MOR; either group of mice (wildtype, knockout)
  Fluorescence signal in brain: did not observe any appreciable signal
[1]; MOR knockout mice
  Plasma half-life (time in which the concentration of dye is 50% of initial): 12.6 min
  Distribution (α) half-life: 6.2 (4.9 - 8.6) min
  Elimination (β) half-life: 45 (33–68) min
[1]; [4]
  Distribution rate, b: 0.11 (0.08-0.14) min^−1
  Elimination rate, d: 0.0155 (0.0102 - 0.0202) min^−1
[1]; mice (abstract summary over wildtype and knockout)
  Plasma half-life following intravenous injection: 8 to 12 min
[1]; wildtype mice
  Plasma half-life (time in which the concentration of dye is 50% of initial): 7.95 min
  Distribution (α) half-life: 3.3 (3.1-3.5) min
  Elimination (β) half-life: 70.8 (67.2 - 74.8) min
[1]; [5]
  Distribution rate, b: 0.211 (0.197 - 0.224) min^-1
  Elimination rate, d: 0.0097 (0.0093 - 0.0103) min^-1
